# Target: HLA-B*08:01 (human)
# Experiment: REVEAL MHC-peptide binding assay, recombinant HLA-B*08:01
# Conditions: remark: other sources report otherwise
row,Binder,In Vitro Score (% of positive control peptide)
1,WVARGRKKL [… (SEQ ID NO: 49)],32.4
2,IFWVHRGRK [… (SEQ ID NO: 41)],0.1
3,VAFIIFWVS [… (SEQ ID NO: 23)],0.1
4,VAFIIFWVK [… (SEQ ID NO: 16)],0.3
5,WVKRGSKKL [… (SEQ ID NO: 60)],56.1
6,IFWVARGRK [… (SEQ ID NO: 47)],0
7,IIFWVKRGL [… (SEQ ID NO: 61)],1.7
8,IFWVKRGHK [… (SEQ ID NO: 66)],3.2
9,IIFWVHRGR [… (SEQ ID NO: 40)],0.2
10,IIFWVLRGR [… (SEQ ID NO: 33)],0.4
11,IFWVSRGRK [… (SEQ ID NO: 27)],0
12,FIIFWVHRG [… (SEQ ID NO: 39)],0.2
13,IIFWVQRGR [… (SEQ ID NO: 53)],0.1
14,IIFWVARGR [… (SEQ ID NO: 46)],0.3
15,IFWVQRGRK [… (SEQ ID NO: 54)],0
16,AFIIFWVAR [… (SEQ ID NO: 45)],0.2
17,WVQRGRKKL [… (SEQ ID NO: 56)],45.1
18,IFWVKRGSK [… (SEQ ID NO: 58)],1.2
19,IFWVKRGLK [… (SEQ ID NO: 62)],58.3
20,IIFWVSRGR [… (SEQ ID NO: 26)],0
21,IIFWVKRGS [… (SEQ ID NO: 57)],0.4
22,IIFWVKRGR [… (SEQ ID NO: 19)],0

# Next, values leading:
row,In Vitro Score (% of positive control peptide),Binder
1,0.9,IIFWVKRGN [… (SEQ ID NO: 73)]
2,0.2,IFWVQRGAK [… (SEQ ID NO: 82)]
3,2.2,IFWVKRGAK [… (SEQ ID NO: 70)]
4,0.9,IIFWVKRGA [… (SEQ ID NO: 69)]
5,65.9,WVKRGNKKL [… (SEQ ID NO: 76)]
6,32,WVQRGNKKL [… (SEQ ID NO: 88)]
7,34.1,WVKRGAKKL [… (SEQ ID NO: 72)]
8,0.1,IFWVKRGNK [… (SEQ ID NO: 74)]
9,0.2,IIFWVQRGA [… (SEQ ID NO: 81)]
10,47.6,WVKRGHKKL [… (SEQ ID NO: 68)]
11,0.1,IFWVQRGNK [… (SEQ ID NO: 86)]

# Target: HLA-A*11:01 (human)
# Experiment: REVEAL MHC-peptide binding assay, recombinant HLA-A*11:01
# Conditions: remark: other sources report otherwise
row,Binder,In Vitro Score (% of positive control peptide)
1,WVARGRKKL [… (SEQ ID NO: 49)],13.8
2,IFWVHRGRK [… (SEQ ID NO: 41)],36.6
3,VAFIIFWVS [… (SEQ ID NO: 23)],25.1
4,VAFIIFWVK [… (SEQ ID NO: 16)],109
5,WVKRGSKKL [… (SEQ ID NO: 60)],11.8
6,IFWVARGRK [… (SEQ ID NO: 47)],34.9
7,IIFWVKRGL [… (SEQ ID NO: 61)],32.4
8,IFWVKRGHK [… (SEQ ID NO: 66)],30.9
9,IIFWVHRGR [… (SEQ ID NO: 40)],77.5
10,IIFWVLRGR [… (SEQ ID NO: 33)],35.2
11,AFIIFWVHR [… (SEQ ID NO: 38)],34.9
12,FIIFWVHRG [… (SEQ ID NO: 39)],0.9
13,IIFWVQRGR [… (SEQ ID NO: 53)],72.8
14,IIFWVARGR [… (SEQ ID NO: 46)],70.6
15,IFWVQRGRK [… (SEQ ID NO: 54)],128
16,AFIIFWVAR [… (SEQ ID NO: 45)],51.8
17,WVQRGRKKL [… (SEQ ID NO: 56)],12.8
18,IFWVKRGSK [… (SEQ ID NO: 58)],47.9
19,IFWVKRGLK [… (SEQ ID NO: 62)],61.1
20,IIFWVSRGR [… (SEQ ID NO: 26)],68.9
21,AFIIFWVSR [… (SEQ ID NO: 24)],54
22,IIFWVKRGR [… (SEQ ID NO: 19)],54.5

# Further lines, results first:
row,In Vitro Score (% of positive control peptide),Binder
1,42.1,IIFWVKRGN [… (SEQ ID NO: 73)]
2,61.3,IFWVQRGAK [… (SEQ ID NO: 82)]
3,69.7,IFWVKRGAK [… (SEQ ID NO: 70)]
4,22.6,IIFWVKRGA [… (SEQ ID NO: 69)]
5,4.1,WVKRGNKKL [… (SEQ ID NO: 76)]
6,10.7,WVQRGNKKL [… (SEQ ID NO: 88)]
7,4.6,WVKRGAKKL [… (SEQ ID NO: 72)]
8,45.9,IFWVKRGNK [… (SEQ ID NO: 74)]
9,56.5,IIFWVQRGA [… (SEQ ID NO: 81)]
10,2.8,WVKRGHKKL [… (SEQ ID NO: 68)]
11,67.5,IFWVQRGNK [… (SEQ ID NO: 86)]
